Consider two molecules from patent US12352767B2, “Method of treating cognitive decline associated with neurological diseases based on a decrease in FLT4 expression or activity” (University of Virginia Patent Foundation, priority 2018, dated 2025).

Entries after “also recorded” stand apart in the source; their conditions may differ.

Assay [1] deals with meningeal lymphatic vessels. Nature of the assay: Meningeal whole-mount immunostaining (LYVE-1/CD31): lymphatic vessel area and diameter, blood vessel coverage. As for the experimental part:
Selective ablation of the meningeal lymphatic vessels was achieved by i.c.m. injection and transcranial photoconversion of Visudyne® (verteporfin for injection, Valeant Ophtalmics). Visudyne was reconstituted following manufacturer instructions and 5 μL was injected i.c.m. following the previously described procedure. […] Each spot was irradiated with a light dose of 50 J/cm^2 at an intensity of 600 mW/cm^2 for a total of 83 s. Controls were injected with the same volume of Visudyne (without the photoconversion step) or sterile saline plus photoconversion (vehicle/photoconversion). The scalp skin was then sutured, the mice were subcutaneously injected with ketoprofen (2 mg/Kg) and allowed to recover on a heating pad until fully awake.
A hydrogel of 1.4% hyaluronic acid and 3% methylcellulose alone (vehicle) or with 200 ng/mL of encapsulated human VEGF-C (PeproTech) or VEGF-C156S (R&D Systems) was prepared as described elsewhere^49. Briefly, lyophilized, sterile methylcellulose (4000 cP, Sigma-Aldrich) and sterile hyaluronic acid (1500-1800 kDa, Sigma-Aldrich) were sequentially dissolved in sterile 0.1 M phosphate buffered saline (PBS) at 4° C. overnight. Lyophilized VEGF-C or VEGF-C156S were resuspended as particulate at 2000 ng/mL in 0.5% sterile methylcellulose in PBS. The particulate solution, or vehicle 0.5% methylcellulose, was mixed into the hydrogel pre-solution at 1:10, and loaded into a syringe for gelation at 37° C. […] The hydrogels were prepared on the day of the experiment and kept warm inside the individual syringes until applied onto the mouse's skull. […] An incision was made in the scalp skin and the skull was thinned at the junction of all sinuses and above the transverse sinus. The shear-thinning properties of the polymers allowed the extrusion of 100 μL of each hydrogel solution from the syringe into the thinned skull surface. The scalp skin was then sutured on top of the solidified hydrogel, the mice were subcutaneously injected with ketoprofen (2 mg/Kg) and allowed to recover on a heating pad until fully awake.
Mice were given a lethal dose of anesthetics by intraperitoneal (i.p.) injection of Euthasol (10% v/v in saline). When needed, CSF was collected from the cisterna magna using a 0.5 mm diameter borosilicate glass pipette with internal filament and immediately stored at −80° C. Mice were then transcardially perfused with ice cold PBS with heparin (10 U/mL). Deep cervical lymph nodes were dissected and drop fixed in 4% paraformaldehyde (PFA) for 12 hours at 4° C. After stripping the skin and muscle from the bone the head was collected and drop fixed in 4% PFA. […] The brains were kept in 4% PFA for additional 24 hours (48 hours in total). […]

Assay [2] deals with meningeal lymphatic drainage. Nature of the assay: Drainage of CSF tracer (OVA-A647) into deep cervical lymph nodes. Type of assay: in vivo, mice. As to the method:
(§1) Mice were anaesthetized by intraperitoneal (i.p.) injection of a mixed solution of ketamine (100 mg/Kg) and xylazine (10 mg/Kg) in saline. The skin of the neck was shaved and cleaned with iodine and 70% ethanol, ophthalmic solution placed on the eyes to prevent drying and the mouse's head was secured in a stereotaxic frame. After making a skin incision, the muscle layers were retracted and the cisterna magna exposed. Using a Hamilton syringe (coupled to a 33-gauge needle), the volume of the desired tracer solution was injected into the CSF-filled cisterna magna compartment. For brain CSF influx and lymphatic drainage experiments, 2 or 5 μL of Alexa Fluor® 594 or 647 conjugated OVA (Thermo Fisher Scientific), at 0.5 mg/mL in artificial CSF (#597316, Harvard Apparatus U.K.), were injected at a rate of 2.5 μL/min. After injecting, the syringe was left in place for additional 2 min to prevent back-flow of CSF.

Another assay has as its system brain parenchyma. Nature of the assay: Brain perfusion/influx by CSF tracer OVA-A647 (brain sections). Type of assay: in vivo, mice. The settings on record: old mice. As for the experimental part: as §1
The test system of assay [3] is meningeal lymphatic vessels. Particulars: recombinant VEGF-C, previously shown (ref. 4); cited from earlier work.
For another assay, the target named is VEGFR3 (Homo sapiens, UniProt P35916). Particulars: VEGFR3 vs VEGFR2 (refs. 34, 36); cited from earlier work.
VEGFR3, sequence (P35916 25-1363, species assumed): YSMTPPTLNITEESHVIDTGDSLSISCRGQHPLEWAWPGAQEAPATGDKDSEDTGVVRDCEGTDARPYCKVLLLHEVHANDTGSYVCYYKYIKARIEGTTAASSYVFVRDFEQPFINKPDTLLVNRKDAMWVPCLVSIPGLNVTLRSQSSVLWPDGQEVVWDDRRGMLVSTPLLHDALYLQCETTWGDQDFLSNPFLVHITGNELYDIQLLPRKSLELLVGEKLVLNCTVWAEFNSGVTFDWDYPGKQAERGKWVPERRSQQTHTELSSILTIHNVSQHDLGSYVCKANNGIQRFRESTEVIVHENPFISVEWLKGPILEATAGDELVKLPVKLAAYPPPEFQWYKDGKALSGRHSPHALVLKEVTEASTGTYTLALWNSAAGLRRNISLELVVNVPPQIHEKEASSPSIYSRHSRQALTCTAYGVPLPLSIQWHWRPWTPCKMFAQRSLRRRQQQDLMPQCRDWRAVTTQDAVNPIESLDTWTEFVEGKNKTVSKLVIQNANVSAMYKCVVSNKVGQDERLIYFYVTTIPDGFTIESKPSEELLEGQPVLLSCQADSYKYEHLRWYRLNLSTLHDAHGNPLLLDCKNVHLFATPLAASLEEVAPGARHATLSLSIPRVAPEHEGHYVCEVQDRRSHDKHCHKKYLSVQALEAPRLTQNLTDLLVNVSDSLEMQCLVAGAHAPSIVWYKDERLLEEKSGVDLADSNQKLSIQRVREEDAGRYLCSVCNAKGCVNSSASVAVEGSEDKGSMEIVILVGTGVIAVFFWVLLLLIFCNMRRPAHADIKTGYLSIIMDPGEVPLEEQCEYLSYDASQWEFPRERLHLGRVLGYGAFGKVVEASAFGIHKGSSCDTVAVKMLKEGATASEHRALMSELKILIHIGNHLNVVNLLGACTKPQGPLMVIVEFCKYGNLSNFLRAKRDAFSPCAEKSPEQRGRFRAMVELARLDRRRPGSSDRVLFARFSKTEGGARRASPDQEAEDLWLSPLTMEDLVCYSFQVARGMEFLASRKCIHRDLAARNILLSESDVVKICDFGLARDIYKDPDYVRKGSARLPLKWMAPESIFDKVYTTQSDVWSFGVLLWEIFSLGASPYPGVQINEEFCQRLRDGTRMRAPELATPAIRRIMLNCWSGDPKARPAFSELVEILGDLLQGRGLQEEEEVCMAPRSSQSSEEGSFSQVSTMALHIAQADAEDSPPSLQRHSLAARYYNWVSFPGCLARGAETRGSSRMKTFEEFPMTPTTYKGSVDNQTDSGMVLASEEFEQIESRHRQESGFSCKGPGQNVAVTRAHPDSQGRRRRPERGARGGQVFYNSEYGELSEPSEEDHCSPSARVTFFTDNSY

B1: VEGF-C: recombinant human VEGF-C (PeproTech) encapsulated in hyaluronic acid/methylcellulose hydrogel for transcranial delivery (protein, UniProt P49767 112-227, looked up)
Vascular endothelial growth …: AHYNTEILKSIDNEWRKTQCMPREVCIDVGKEFGVATNTFFKPPCVSVYRCGGCCNSEGLQCMNTSTSYLSKTLFEITVPLSQGPKPVTISFANHTSCRCMSKLDVYRQVHSIIRR
modifications: in hyaluronic acid/methylcellulose hydrogel
notes: recombinant human VEGF-C (PeproTech) encapsulated in hyaluronic acid/methylcellulose hydrogel for transcranial delivery
For B1, the “meningeal lymphatic vessel diameter (superior sagittal sinus)” value in assay [1] (young/adult (3 months) and old (20-24 months) mice, hydrogel VEGF-C 200 ng/mL transcranial, 4 weeks, vs vehicle) is recorded as “increased diameter; also recorded: significant increase”. For the same molecule, the “meningeal lymphatic function (OVA-A647 drainage into dCLNs)” value in assay [2] (old mice, transcranial hydrogel VEGF-C vs vehicle) is recorded as “significant increase; also recorded: increased drainage”; in assay [2] (young-adult mice, transcranial hydrogel VEGF-C), “did not respond”. For the same molecule, the “brain perfusion by CSF macromolecules (OVA-A647 influx)” value in the assay on brain parenchyma (transcranial hydrogel VEGF-C) is “enhanced brain perfusion; also recorded: significantly increased”. The “diameter of meningeal lymphatic vessels” value in assay [3] is given as “increases the diameter”.

B2: VEGF-C156S: mutant VEGF-C protein that binds specifically to VEGFR3, delivered in hydrogel transcranially (protein, UniProt P49767 112-227, looked up, variant C156S)
Vascular endothelial growth …: AHYNTEILKSIDNEWRKTQCMPREVCIDVGKEFGVATNTFFKPPSVSVYRCGGCCNSEGLQCMNTSTSYLSKTLFEITVPLSQGPKPVTISFANHTSCRCMSKLDVYRQVHSIIRR
modifications: delivered in hydrogel
Turning to B2, the “meningeal lymphatic diameter (LYVE-1+ vessels, superior sagittal sinus)” value in assay [1] (old mice, hydrogel VEGF-C156S 200 ng/mL transcranial vs vehicle) is recorded as “significant increase; also recorded: increased diameter”. Also, in assay [2] (old mice, transcranial VEGF-C156S vs vehicle), the “drainage of tracer from the CSF (OVA-A647 area fraction in dCLNs)” value is listed as “significant increase”. In the assay with brain parenchyma (transcranial VEGF-C156S), the “paravascular influx of tracer into the brain (OVA-A647 area fraction)” value is given as “significant increase”. For the same molecule, the receptor binding specificity result with VEGFR3 is “binds specifically to VEGFR3 and spares its effects on VEGFR2”.
